Reference: patent US20090178146

B1: FLAG-tagged IRAK4 expressed in HEK293 cells and immunoprecipitated with anti-FLAG antibody (protein)
chain: MNKPITPSTYVRCLNVGLIRKLSDFIDPQEGWKKLAVAIKKPSGDDRYNQFHIRRFEALLQTGKSPTSELLFDWGTTNCTVGDLVDLLIQNEFFAPASLLLPDAVPKTANTLPSKEAITVQQKQMPFCDKDRTLMTPVQNLEQSYMPPDSSSPENKSLEVSDTRFHSFSFYELKNVTNNFDERPISVGGNKMGEGGFGVVYKGYVNNTTVAVKKLAAMVDITTEELKQQFDQEIKVMAKCQHENLVELLGFSSDGDDLCLVYVYMPNGSLLDRLSCLDGTPPLSWHMRCKIAQGAANGINFLHENHHIHRDIKSANILLDEAFTAKISDFGLARASEKFAQTVMTSRIVGTTAYMAPEALRGEITPKSDIYSFGVVLLEIITGLPAVDEHREPQLLLDIKEEIEDEEKTIEDYIDKKMNDADSTSVEAMYSVASQCLHEKKNKRPDIKKVQQLLQEMTAS
B2: FLAG-tagged PRKG1 expressed in HEK293 cells and immunoprecipitated with anti-FLAG antibody (protein)
chain: MSELEEDFAKILMLKEERIKELEKRLSEKEEEIQELKRKLHKCQSVLPVPSTHIGPRTTRAQGISAEPQTYRSFHDLRQAFRKFTKSERSKDLIKEAILDNDFMKNLELSQIQEIVDCMYPVEYGKDSCIIKEGDVGSLVYVMEDGKVEVTKEGVKLCTMGPGKVFGELAILYNCTRTATVKTLVNVKLWAIDRQCFQTIMMRTGLIKHTEYMEFLKSVPTFQSLPEEILSKLADVLEETHYENGEYIIRQGARGDTFFIISKGTVNVTREDSPSEDPVFLRTLGKGDWFGEKALQGEDVRTANVIAAEAVTCLVIDRDSFKHLIGGLDDVSNKAYEDAEAKAKYEAEAAFFANLKLSDFNIIDTLGVGGFGRVELVQLKSEESKTFAMKILKKRHIVDTRQQEHIRSEKQIMQGAHSDFIVRLYRTFKDSKYLYMLMEACLGGELWTILRDRGSFEDSTTRFYTACVVEAFAYLHSKGIIYRDLKPENLILDHRGYAKLVDFGFAKKIGFGKKTWTFCGTPEYVAPEIILNKGHDISADYWSLGILMYELLTGSPPFSGPDPMKTYNIILRGIDMIEFPKKIAKNAANLIKKLCRDNPSERLGNLKNGVKDIQKHKWFEGFNWEGLRKGTLTPPIIPSVASPTDTSNFDSFPEDNDEPPPDDNSGWDIDF
B3: FLAG-tagged DYRK2 expressed in HEK293 cells and immunoprecipitated with anti-FLAG antibody (protein)
chain: MNDHLHVGSHAHGQIQVQQLFEDNSNKRTVLTTQPNGLTTVGKTGLPVVPERQLDSIHRRQGSSTSLKSMEGMGKVKATPMTPEQAMKQYMQKLTAFEHHEIFSYPEIYFLGLNAKKRQGMTGGPNNGGYDDDQGSYVQVPHDHVAYRYEVLKVIGKGSFGQVVKAYDHKVHQHVALKMVRNEKRFHRQAAEEIRILEHLRKQDKDNTMNVIHMLENFTFRNHICMTFELLSMNLYELIKKNKFQGFSLPLVRKFAHSILQCLDALHKNRIIHCDLKPENILLKQQGRSGIKVIDFGSSCYEHQRVYTYIQSRFYRAPEVILGARYGMPIDMWSLGCILAELLTGYPLLPGEDEGDQLACMIELLGMPSQKLLDASKRAKNFVSSKGYPRYCTVTTLSDGSVVLNGGRSRRGKLRGPPESREWGNALKGCDDPLFLDFLKQCLEWDPAVRMTPGQALRHPWLRRRLPKPPTGEKTSVKRITESTGAITSISKLPPPSSSASKLRTNLAQMTDANGNIQQRTVLPKLVS
B4: recombinant DYRK2 protein kinase (Upstate Biotechnology), bacterially expressed (protein)
chain: B3 chain

How the values were obtained:
[1] = target: T1, GST-NFAT1(1-415) fusion protein (entire NFAT1 regulatory domain) expressed in bacterial cells
T1 sequence (Q13469 whole entry, species assumed, looked up): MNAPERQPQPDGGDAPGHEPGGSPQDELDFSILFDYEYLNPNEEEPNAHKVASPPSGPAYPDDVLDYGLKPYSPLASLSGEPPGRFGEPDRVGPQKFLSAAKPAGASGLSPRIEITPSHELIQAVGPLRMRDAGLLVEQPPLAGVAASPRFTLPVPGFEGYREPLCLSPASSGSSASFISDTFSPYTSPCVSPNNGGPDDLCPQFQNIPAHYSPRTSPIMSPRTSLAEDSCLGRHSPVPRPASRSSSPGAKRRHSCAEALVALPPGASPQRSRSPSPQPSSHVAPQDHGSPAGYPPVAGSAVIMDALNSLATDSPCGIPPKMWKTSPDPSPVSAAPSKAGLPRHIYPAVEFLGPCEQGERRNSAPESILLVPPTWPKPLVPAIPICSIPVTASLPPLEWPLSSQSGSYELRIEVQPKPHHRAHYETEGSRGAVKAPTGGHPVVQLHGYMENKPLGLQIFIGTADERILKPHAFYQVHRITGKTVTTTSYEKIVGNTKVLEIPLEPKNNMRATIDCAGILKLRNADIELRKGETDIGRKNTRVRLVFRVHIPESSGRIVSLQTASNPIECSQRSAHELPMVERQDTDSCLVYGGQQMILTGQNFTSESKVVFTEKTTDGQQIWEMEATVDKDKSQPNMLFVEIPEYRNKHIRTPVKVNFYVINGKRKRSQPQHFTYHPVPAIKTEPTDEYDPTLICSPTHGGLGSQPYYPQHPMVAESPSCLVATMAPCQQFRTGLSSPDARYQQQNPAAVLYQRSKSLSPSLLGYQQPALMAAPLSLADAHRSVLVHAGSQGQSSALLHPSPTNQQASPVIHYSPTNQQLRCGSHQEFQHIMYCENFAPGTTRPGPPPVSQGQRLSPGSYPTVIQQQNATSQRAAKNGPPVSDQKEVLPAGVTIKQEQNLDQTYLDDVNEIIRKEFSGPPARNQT

[2] = target: T2, GST-fused peptide corresponding to the SP-2 motif (amino acids 206-237) of NFAT1, wild type
T2 sequence (Q13469 whole entry, species assumed, looked up): T1 sequence (Q13469 whole entry, species assumed, looked up)

[3] = target: GST-fused peptide corresponding to the SP-3 motif (amino acids 264-295) of NFAT1, wild type
[4] = target: GST-fused SP-3 peptide of NFAT1 (amino acids 264-295) with Ser>Ala substitutions in the serines phosphorylated in cells

Row | Protein | in vitro kinase assay, phosphorylation of GST-NFAT1 (1-415) (autoradiography) [1] | in vitro kinase assay, phosphorylation of GST-peptide [2] | in vitro kinase assay, phosphorylation of GST-peptide [3] | in vitro kinase assay with recombinant kinase, phosphorylation of GST-peptide [4] | in vitro kinase assay with recombinant kinase, phosphorylation of GST-peptide [3]
1 | B1 | Three novel candidates-PRKG1, DYRK2 and IRAK4-showed strong activity in this assay | – | – | – | –
2 | B2 | Three novel candidates-PRKG1, DYRK2 and IRAK4-showed strong activity in this assay | – | – | – | –
3 | B3 | Three novel candidates-PRKG1, DYRK2 and IRAK4-showed strong activity in this assay | phosphorylated peptides corresponding to the conserved SP-3 but not the SP-2 motif of the NFAT regulatory domain in vitro | phosphorylated peptides corresponding to the conserved SP-3 but not the SP-2 motif of the NFAT regulatory domain in vitro | – | –
4 | B4 | – | – | – | neither kinase phosphorylated an SP-3 peptide with Ser>Ala substitutions in the specific serine residues known to be phosphorylated in cells | DYRK2 and DYRK1A both displayed strong and selective kinase activity towards the SP-3 motif of NFAT1
